Test results taken from PMC4703963, “Oxidative Dimerization of PHD2 is Responsible for its Inactivation and Contributes to Metabolic Reprogramming via HIF-1α Activation” (Scientific Reports, 2016).

Target: the molecule itself
Test: non-reducing SDS-PAGE with immunoblot; total cell lysates (1% IGEPAL, 150 mM NaCl, 50 mM Tris-HCl pH 7.9, no reducing agent) in sample buffer without β-ME; cells treated with H2O2 (50-200 uM), T-hydro (1-3 uM), diamide (0.1-1 mM), 10% FBS or expressing H-ras V12

Protein | stoichiometry N
Flag-tagged PHD3 (natural protein, human, UniProt Q9H6Z9 1-239, looked up, PHD3, human; Flag-tagged lentiviral vector from William Kaelin; also called Flag-PHD3; source: U2OS stably expressing (lentiviral vector), in lysate) MPLGHIMRLDLEKIALEYIVPCLHEVGFCYLDNFLGEVVGDCVLERVKQLHCTGALRDGQLAGPRAGVSKRHLRGDQITWIGGNEEGCEAISFLLSLIDRLVLYCGSRLGKYYVKERSKAMVACYPGNGTGYVRHVDNPNGDGRCITCIYYLNKNWDAKLHGGILRIFPEGKSFIADVEPIFDRLLFFWSDRRNPHEVQPSYATRYAMTVWYFDAEERAEAKKKFRNLTRKTESALTED | 2
PHD3, endogenous (natural protein, human (endogenous in U2OS), UniProt Q9H6Z9 1-239, looked up, PHD3, endogenous in U2OS cells; source: endogenous, U2OS lysate) MPLGHIMRLDLEKIALEYIVPCLHEVGFCYLDNFLGEVVGDCVLERVKQLHCTGALRDGQLAGPRAGVSKRHLRGDQITWIGGNEEGCEAISFLLSLIDRLVLYCGSRLGKYYVKERSKAMVACYPGNGTGYVRHVDNPNGDGRCITCIYYLNKNWDAKLHGGILRIFPEGKSFIADVEPIFDRLLFFWSDRRNPHEVQPSYATRYAMTVWYFDAEERAEAKKKFRNLTRKTESALTED | 2
